{"source": "patent US20220218659", "target": "T1, Human ACLY, His-tagged, bacterially expressed and purified recombinant full length protein, P53396", "T1 chain": "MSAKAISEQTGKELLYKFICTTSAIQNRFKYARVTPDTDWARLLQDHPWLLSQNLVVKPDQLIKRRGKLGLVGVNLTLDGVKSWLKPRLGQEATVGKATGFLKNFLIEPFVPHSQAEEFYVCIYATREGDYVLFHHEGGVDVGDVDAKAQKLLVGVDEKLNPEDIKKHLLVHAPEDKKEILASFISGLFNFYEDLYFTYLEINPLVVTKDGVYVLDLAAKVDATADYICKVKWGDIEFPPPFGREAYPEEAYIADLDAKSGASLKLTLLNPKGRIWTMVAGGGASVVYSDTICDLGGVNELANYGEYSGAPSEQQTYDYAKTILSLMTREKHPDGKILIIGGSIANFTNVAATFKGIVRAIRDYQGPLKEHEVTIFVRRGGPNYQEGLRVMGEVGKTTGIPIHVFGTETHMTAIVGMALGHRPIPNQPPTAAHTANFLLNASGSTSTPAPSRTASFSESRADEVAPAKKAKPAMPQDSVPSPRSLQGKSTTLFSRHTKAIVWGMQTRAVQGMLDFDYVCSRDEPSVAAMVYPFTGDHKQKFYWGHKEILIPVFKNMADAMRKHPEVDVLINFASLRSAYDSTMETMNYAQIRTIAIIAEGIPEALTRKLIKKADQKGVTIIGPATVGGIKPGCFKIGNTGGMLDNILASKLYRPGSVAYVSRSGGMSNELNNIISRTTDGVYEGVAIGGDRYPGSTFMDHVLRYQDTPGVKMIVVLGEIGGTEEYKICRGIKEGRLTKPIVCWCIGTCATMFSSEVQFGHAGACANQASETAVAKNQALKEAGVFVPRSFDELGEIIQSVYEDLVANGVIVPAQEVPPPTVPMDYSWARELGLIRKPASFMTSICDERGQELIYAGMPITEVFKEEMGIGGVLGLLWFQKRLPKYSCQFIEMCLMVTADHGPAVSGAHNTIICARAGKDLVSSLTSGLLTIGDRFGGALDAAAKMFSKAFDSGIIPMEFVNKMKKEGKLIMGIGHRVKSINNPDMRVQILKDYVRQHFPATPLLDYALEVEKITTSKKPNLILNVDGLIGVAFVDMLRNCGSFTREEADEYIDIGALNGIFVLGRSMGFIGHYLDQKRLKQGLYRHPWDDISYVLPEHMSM", "data": [{"protein": "Active recombinant Lyn kinase (protein) MGCIKSKGKDSLSDDGVDLKTQPVRNTERTIYVRDPTSNKQQRPVPESQLLPGQRFQTKDPEEQGDIVVALYPYDGIHPDDLSFKKGEKMKVLEEHGEWWKAKSLLTKKEGFIPSNYVAKLNTLETEEWFFKDITRKDAERQLLAPGNSAGAFLIRESETLKGSFSLSVRDFDPVHGDVIKHYKIRSLDNGGYYISPRITFPCISDMIKHYQKQADGLCRRLEKACISPKPQKPWDKDAWEIPRESIKLVKRLGAGQFGEVWMGYYNNSTKVAVKTLKPGTMSVQAFLEEANLMKTLQHDKLVRLYAVVTREEPIYIITEYMAKGSLLDFLKSDEGGKVLLPKLIDFSAQIAEGMAYIERKNYIHRDLRAANVLVSESLMCKIADFGLARVIEDNEYTAREGAKFPIKWTAPEAINFGCFTIKSDVWSFGILLYEIVTYGKIPYPGRTNADVMTALSQGYRMPRVENCPDELYDIMKMCWKEKAEERPTFDYLQSVLDDFYTATEGQYQQQP", "values": [{"measurement": "ACLY tyrosine residues phosphorylated (phosphoproteomics)", "value": "The three ACLY tyrosine residues, Y682, Y252, Y227, were common for Lyn and Src"}, {"measurement": "number of ACLY tyrosine residues phosphorylated (in vitro kinase assay, phosphoproteomics) (tyrosine residues)", "value": 6}]}]}
